In patent US11180762B2, “Methods and compositions for the treatment of cancer” (CHILDREN'S MEDICAL CENTER CORPORATION, priority 2014, dated 2021):
Entries after “also recorded” stand apart in the source; their conditions may differ.

Tests used:
[1] = Serum stability, serum species not stated; assay type: in vitro ADME; conditions: 2'-fluoropyrimidine AsiC
[2] = tested on: eGFP expression in BPLER and BPE cells; assay: eGFP knockdown in GFP-expressing BPLER and BPE cells; assay type: cell-based, human; conditions: AsiC 4 μM without lipid; siRNA 100 nM with Dharmafect; 72 hours
Procedure: FIG. 21A depicts the design of EpCAM-AsiC, containing an EpCAM aptamer and a PLK1 siRNA (sense strand disclosed as SEQ ID NO: 1 and antisense strand disclosed as SEQ ID NO: 2). […] EpCAM-AsiC targeting GFP was Alexa647 or Cy3 labeled at the 3′ end of the antisense siRNA strand and incubated with BPLER and BPE cells. Uptake was assessed 24 hours later by flow cytometry (FIG. 21C). Data are representative of 3 independent experiments. Cy3 and Alexa647-labeled EpCAM-AsiC was taken up by MB468 and BPLER (EpCAM+ cells) respectively and not by BPE (EpCAM−). MFI of each peak is shown (mock, gray). FIG. 21D depicts graphs of experiments in which, to test for gene silencing, BPLER and BPE were treated with EpCAM-AsiC targeting GFP (4 μM) and compared to Transfection controls using Dharmafect and GFP-siRNA (100 nM). Knockdown was assessed by flow cytometry 72 hours after incubation. Controls were mock and Dhrmafect only treatment (lipid). (n=4).
(§1) For uptake and silencing treatment, cells were plated at low density (10,000 cells/well in 96-well plates) and treated immediately. All AsiC and siRNA treatments were performed in either OptiMEM or WIT medium. Cell viability was assessed by CellTiter-Glo (Promega) or by Trypan-Blue staining in 96-well plates.
Cells were transfected with Dharmafect I per the manufacturer's protocol. See FIG. 9 for all siRNA sequences.

[3] = Stability in human serum (denaturing PAGE, densitometry); assay type: in vitro ADME; conditions: 2'-fluoropyrimidine AsiC
Procedure: Aliquots were removed at regular intervals and resuspended in gel loading buffer and stored at −80° C. before electrophoresis on denaturing PAGE gels. The average intensity (+S.E.M.) of bands from 2 independent experiments quantified by densitometry after staining is shown.
EpCAM-AsiC targeting GFP synthesized using 2′-fluoro-pyrimidines, chemically-stabilized 21-mer cholesterol-conjugated GFP-siRNAs (chol-siRNA), and unmodified 21-mer GFP-siRNA, each in 100 ul PBS, which were added to 100 μl of human or mouse serum. At regular intervals, 20 μL was removed, and resuspended in gel loading buffer and frozen at −80° C. before being electrophoresed on a denaturing PAGE gel. FIG. 30A depicts representative PAGE gels and FIG. 30B depicts graphs of the average intensity (+S.E.M.) of bands from two independent experiments analyzed by densitometry. Both the stabilized cholesterol-conjugated siRNA and the EpCAM-AsiC are stable over the 36 h of the experiment.

AKT1 = AKT1 mRNA and protein knockdown in breast cancer cell lines; assay type: cell-based, human; conditions: basal-A, luminal, basal-B lines, fibroblasts
Procedure: as §1
For flow cytometry, cells were stained as previously described (Yu, F. et al (2007). let-7 Regulates Self Renewal and Tumorigenicity of Breast Cancer Cells. Cell 131, 1109-1123. ), briefly, direct immunostaining of EpCAM and AKT1 was performed using 1:50 dilutions of hAb for 30-60 minutes at 4° C. (BioLegend/BD). Cells were stained in PBS containing 0.5% FCS, 1 mM EDTA, and 25 mM HEPES. Samples were washed twice in the same buffer. Data was acquired using FACS-Canto II (BD Biosciences). Analyses were performed in triplicate and 10,000 gated events/sample were counted. All data analysis was performed using FlowJo (Treestar Inc.).
qRT-PCR analysis was performed as described (Petrocca, F., et al. (2008). E2F1-regulated microRNAs impair TGFbeta-dependent cell-cycle arrest and apoptosis in gastric cancer. Cancer Cell 13, 272-286). Briefly, total RNA was extracted with Trizol (Invitrogen) and cDNA prepared from 1000 ng total RNA using Thermoscript RT kit (Invitrogen) as per the […] (Applied Biosystems) and a BioRad C1000 Thermal Cycler (Biorad). Relative CT values were normalized to GAPDH and converted to a linear scale.

[4] = tested on: basal-A, luminal and basal-B breast cancer cell lines; assay: Cell proliferation/viability by CellTiter-Glo in 10 breast cancer cell lines; assay type: cell-based, human
Excerpt: To explore whether EpCAM-AsiCs could be used as anti-tumor agents in breast cancer, we examined by CellTiterGlo assay the effect of AsiCs directed against PLK1, a kinase required for mitosis, on survival of 10 breast cancer cell lines that included 5 basal-A TNBCs, 2 luminal cell lines, and 3 basal-B TNBCs. […] The anti-proliferative effect strongly correlated with EpCAM expression (FIG. 2B). The reduction in viable EpCAM+ cells after knockdown was due to induction of apoptosis, assessed by annexin V-propidium iodide staining and caspase activation (data not shown). To determine whether ligation of the EpCAM aptamer contributed to the anti-proliferative effect of the EpCAM-AsiC, we compared survival of cells that were treated with the PLK1 EpCAM-AsiC with cells treated with the aptamer on its own (FIG. 2C). […] Thus the PLK1 EpCAM-AsiC asserts its specific anti-tumor effect on EpCAM+ breast cancer cells by gene knockdown.
as §1

[5] = listed as EpCAM-AsiC targeting PLK1
[6] = listed as EpCAM-AsiCs targeting PLK1

B1: EpCAM-AsiC: EpCAM aptamer-siRNA chimera, siRNA cargo not specified at the place; 2'-fluoropyrimidines, 3'-dTdT (nucleic acid)
sense: GCGACUGGUUACCCGGUCGUUUUGAAGAAGAUCACCCUCCUUATT
antisense: UAAGGAGGGUGAUCUUCUUCATT
modifications: DNA at T, 2'-fluoro at CU, RNA at AG, backbone not given here; further chemistry not fully specified
notes: EpCAM aptamer-siRNA chimera, siRNA cargo not specified at the place; 2'-fluoropyrimidines, 3'-dTdT
- serum T1/2 [1]: > 72 h
- eGFP knockdown, BPLER vs BPE [2]: uniform and selective for EpCAM+ cells
- T1/2 in human serum [3]: > 36 h
- AKT1 mRNA and protein knockdown across cell lines (AKT1): uniform and selective for EpCAM+ cells

B2: PLK1 EpCAM-AsiC: EpCAM aptamer linked by U-U-U to PLK1 siRNA sense strand (SEQ ID NO: 1), annealed to antisense strand (SEQ ID NO: 2) (nucleic acid)
sense: B1 sense
antisense: UAAGGAGGGUGAUCUUCUUCATT
modifications: DNA at T, 2'-fluoro at CU, RNA at AG, backbone not given here; EpCAM aptamer fused to sense strand
- cell proliferation/viability, basal-A and luminal (EpCAM+) lines [4, 5]: displayed a decrease in cell viability; also recorded: decreased cell proliferation in both basal A and luminal cell lines; also recorded: suppressed cell viability in basal A and luminal cell lines
- cell proliferation/viability, basal-B lines [4, 5]: having no effect on basal B cells
- cell proliferation/viability, basal-A and luminal (EpCAM+) lines [4, 6]: decreased cell proliferation
- cell proliferation/viability, basal-B lines [4, 6]: did not inhibit basal-B cells
